The target of test [1] is 1-442 Rap1GAP1a-RlucII, P47736-1. Description: ebBRET (Rap1GAP1a-RlucII recruitment to rGFP-CaaX at the plasma membrane). To be noted: A293 cells with μ-opioid receptor, 48 h post-transfection, read off a plot.
For test [2] the target is unchanged. In words: ebBRET (agonist-induced net BRET, Rap1GAP1a-RlucII recruitment to the plasma membrane). The note with it: 10 μM DAMGO; parent: est. 0.22; read off a plot. Background: BRET reads energy transfer from a luciferase to a nearby fluorophore.
The target is the same in test [3]. Description: ebBRET (Rap1GAP1a-RlucII recruitment to the plasma membrane). To be noted: A293 cells, parent: est. 0.17, read off a plot.
Where [4] appears, read: double mutant in Gαo(Q205L) background, Gαo(Q205L) bar in same panel est. 0.39.

1-442 Rap1GAP1a-RlucII, P47736-1, sequence (P47736 1-442 S437A/S439A/S441A): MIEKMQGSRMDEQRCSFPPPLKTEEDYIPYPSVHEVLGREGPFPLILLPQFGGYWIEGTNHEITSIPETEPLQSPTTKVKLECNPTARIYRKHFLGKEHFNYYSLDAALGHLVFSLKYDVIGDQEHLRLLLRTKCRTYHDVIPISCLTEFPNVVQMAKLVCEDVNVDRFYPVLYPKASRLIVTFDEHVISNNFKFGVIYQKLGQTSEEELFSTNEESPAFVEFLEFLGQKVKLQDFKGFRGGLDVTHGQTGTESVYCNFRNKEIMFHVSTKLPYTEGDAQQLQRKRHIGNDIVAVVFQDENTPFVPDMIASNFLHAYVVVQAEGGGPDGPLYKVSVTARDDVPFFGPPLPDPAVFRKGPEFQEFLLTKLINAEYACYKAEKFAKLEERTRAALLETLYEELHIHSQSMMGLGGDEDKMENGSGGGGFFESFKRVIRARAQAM

On to HA-Gαo^(WT) (from UniProt P09471) E246G, for which the response turned out to be 0.06 BRET ratio in test [1] (10 μM DAMGO, parent: est. 0.32); 0.035 BRET ratio in test [1] (vehicle, parent: est. 0.12); 0.03 Net BRET in test [2]. As for “HA-Gαo^(WT) (from UniProt P09471) Q205L; R209H”, the response in test [3] (setting [4]) came to 0.04 BRET ratio. On to HA-Gαo^(WT) (from UniProt P09471) N242T, for which the response in test [1] (10 μM DAMGO, parent: est. 0.32) was 0.3 BRET ratio; in test [1] (vehicle, parent: est. 0.12), 0.07 BRET ratio; in test [2], 0.23 Net BRET. On to “HA-Gαo^(WT) (from UniProt P09471) Q205L; A221D”, for which the response in test [3] (setting [4]) turned out to be 0.37 BRET ratio.

In the case of HA-Gαo^(WT) (from UniProt P09471) A221D, the response in test [1] (10 μM DAMGO, parent: est. 0.32) is 0.18 BRET ratio; in test [1] (vehicle, parent: est. 0.12) it was 0.04 BRET ratio; in test [2] it was 0.14 Net BRET. HA-Gαo^(WT) (from UniProt P09471) E237K: the response in test [1] (10 μM DAMGO, parent: est. 0.32) came out at 0.11 BRET ratio; in test [1] (vehicle, parent: est. 0.12) it was 0.04 BRET ratio; in test [2] it was 0.07 Net BRET. Taken in the same sequence, the figures for HA-Gαo^(WT) (from UniProt P09471) G203E were 0.08 BRET ratio, 0.035 BRET ratio and 0.04 Net BRET.

As for “HA-Gαo^(WT) (from UniProt P09471) Q205L; N242T”, the response in test [3] (setting [4]) amounted to 0.41 BRET ratio.

In the case of “HA-Gαo^(WT) (from UniProt P09471) Q205L; R209C”, the response in test [3] (setting [4]) amounted to 0.035 BRET ratio.

Regarding HA-Gαo^(WT) (from UniProt P09471) R209C, the response in test [1] (10 μM DAMGO, parent: est. 0.32) is 0.04 BRET ratio; in test [1] (vehicle, parent: est. 0.12), 0.03 BRET ratio; in test [2], 0.012 Net BRET.

For HA-Gαo^(WT) (from UniProt P09471) R209H, the response in test [1] (10 μM DAMGO, parent: est. 0.32) came to 0.045 BRET ratio; in test [1] (vehicle, parent: est. 0.12) it was 0.035 BRET ratio; in test [2], 0.015 Net BRET.

Turning to “HA-Gαo^(WT) (from UniProt P09471) Q205L; E237K”, the response in test [3] (setting [4]) stood at 0.14 BRET ratio. On to “HA-Gαo^(WT) (from UniProt P09471) Q205L; G203E”, for which the response in test [3] (setting [4]) turned out to be 0.085 BRET ratio. As to HA-Gαo^(WT) (from UniProt P09471) Q205L, the response in test [3] (no-Gαo control bar est. 0.07) stood at 0.39 BRET ratio. For the substance “HA-Gαo^(WT) (from UniProt P09471) Q205L; E246G”, the response in test [3] (setting [4]) was found to be 0.08 BRET ratio.

Source of the values: publication PMC12329598.
